From article PMC4627090, “Slicer-independent mechanism drives small-RNA strand separation during human RISC assembly”

Target: recombinant human AGO2 (rhAGO2) (Homo sapiens, UniProt Q9UKV8 1-859)
Assay: EMSA; 25 C; EMSA: 10 mM HEPES-KOH pH 7.4, 50 mM KCl, 1 mM DTT, 3% Ficoll-400, 0.1 mg/ml BSA, 10 nM RNA, 0-200 nM hAGO2, 30 min at 25 or 37 C, 6% native gel at 4 C; RISC assembly in HEK293T lysate at 0.75-3.75 mM Mg2+, 25 or 37 C
Conditions: protein: recombinant; tags: N-terminal FLAG and His; label: 32P; single strand

Sequence of recombinant human AGO2 (rhAGO2) (Q9UKV8 whole entry): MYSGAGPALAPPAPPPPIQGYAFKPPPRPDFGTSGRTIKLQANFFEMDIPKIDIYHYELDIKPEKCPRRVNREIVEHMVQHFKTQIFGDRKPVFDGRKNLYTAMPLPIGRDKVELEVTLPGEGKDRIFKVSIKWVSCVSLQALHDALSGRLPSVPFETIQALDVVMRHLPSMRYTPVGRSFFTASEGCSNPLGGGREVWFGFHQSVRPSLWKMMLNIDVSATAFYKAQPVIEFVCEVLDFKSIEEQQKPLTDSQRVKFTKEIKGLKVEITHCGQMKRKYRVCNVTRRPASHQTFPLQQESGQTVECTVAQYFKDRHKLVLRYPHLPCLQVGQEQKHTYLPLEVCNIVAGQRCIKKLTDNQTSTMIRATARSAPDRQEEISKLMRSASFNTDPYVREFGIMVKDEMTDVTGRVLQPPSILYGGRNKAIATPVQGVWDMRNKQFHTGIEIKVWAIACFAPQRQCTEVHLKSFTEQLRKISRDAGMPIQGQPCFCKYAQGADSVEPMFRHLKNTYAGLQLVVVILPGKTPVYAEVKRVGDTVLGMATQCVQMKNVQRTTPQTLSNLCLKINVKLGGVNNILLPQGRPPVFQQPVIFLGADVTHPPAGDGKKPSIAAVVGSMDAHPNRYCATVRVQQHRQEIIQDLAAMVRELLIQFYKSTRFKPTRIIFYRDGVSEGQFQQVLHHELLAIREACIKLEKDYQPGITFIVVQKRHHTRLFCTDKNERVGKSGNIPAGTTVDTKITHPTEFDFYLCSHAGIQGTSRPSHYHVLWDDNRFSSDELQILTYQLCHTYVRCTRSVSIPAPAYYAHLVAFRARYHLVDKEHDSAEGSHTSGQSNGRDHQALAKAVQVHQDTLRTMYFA

B1: miR-1 guide ssRNA (ssRNA)
RNA: UGGAAUGUAAAGAAGUAUGUA
B1 was tested, and the Kd was roughly 44.4 nM.
